{"source": "IntAct's records for PubMed 9830048", "parents": {"B1": {"name": "Synaptotagmin-1 (Rattus norvegicus (Rat)), P21707 (parent)", "chain": "MVSASHPEALAAPVTTVATLVPHNATEPASPGEGKEDAFSKLKQKFMNELHKIPLPPWALIAIAIVAVLLVVTCCFCVCKKCLFKKKNKKKGKEKGGKNAINMKDVKDLGKTMKDQALKDDDAETGLTDGEEKEEPKEEEKLGKLQYSLDYDFQNNQLLVGIIQAAELPALDMGGTSDPYVKVFLLPDKKKKFETKVHRKTLNPVFNEQFTFKVPYSELGGKTLVMAVYDFDRFSKHDIIGEFKVPMNTVDFGHVTEEWRDLQSAEKEEQEKLGDICFSLRYVPTAGKLTVVILEAKNLKKMDVGGLSDPYVKIHLMQNGKRLKKKKTTIKKNTLNPYYNESFSFEVPFEQIQKVQVVVTVLDYDKIGKNDAIGKVFVGYNSTGAELRHWSDMLANPRRPIAQWHTLQVEEEVDAMLAVKK"}}}
{"variants_of": "B1", "conditions": "with cac1b_rat Cacna1b"}
{"variant": "MVSASHPEALAAPVTTVATLVPHNATEPASPGEGKEDAFSKLKQKFMNELHKIPLPPWALIAIAIVAVLLVVTCCFCVCKKCLFKKKNKKKGKEKGGKNAINMKDVKDLGKTMKDQALKDDDAETGLTDGEEKEEPKEEEKLGKLQYSLDYDFQNNQLLVGIIQAAELPALDMGGTSDPYVKVFLLPDKKKKFETKVHRKTLNPVFNEQFTFKVPYSELGGKTLVMAVYDFDRFSKHDIIGEFKVPMNTVDFGHVTEEWRDLQSAEKEEQEKLGDICFSLRYVPTAGKLTVVILEAKNLKKMDVGGLSDPYVKIHLMQNGKRLKKAATTIKKNTLNPYYNESFSFEVPFEQIQKVQVVVTVLDYDKIGKNDAIGKVFVGYNSTGAELRHWSDMLANPRRPIAQWHTLQVEEEVDAMLAVKK", "note": "[K326A;K327A]", "effect of a mutation on the interaction": "decreasing interaction"}
{"variants_of": "B1", "conditions": "with ap2a2_rat Ap2a2, P18484"}
{"variant": "MVSASHPEALAAPVTTVATLVPHNATEPASPGEGKEDAFSKLKQKFMNELHKIPLPPWALIAIAIVAVLLVVTCCFCVCKKCLFKKKNKKKGKEKGGKNAINMKDVKDLGKTMKDQALKDDDAETGLTDGEEKEEPKEEEKLGKLQYSLDYDFQNNQLLVGIIQAAELPALDMGGTSDPYVKVFLLPDKKKKFETKVHRKTLNPVFNEQFTFKVPYSELGGKTLVMAVYDFDRFSKHDIIGEFKVPMNTVDFGHVTEEWRDLQSAEKEEQEKLGDICFSLRYVPTAGKLTVVILEAKNLKKMDVGGLSDPYVKIHLMQNGKRLKKAATTIKKNTLNPYYNESFSFEVPFEQIQKVQVVVTVLDYDKIGKNDAIGKVFVGYNSTGAELRHWSDMLANPRRPIAQWHTLQVEEEVDAMLAVKK", "note": "[K326A;K327A]", "effect of a mutation on the interaction": "decreasing interaction"}
